Here are results for 1 substance from US20130330359A1.

The target of test [1] is carrier free RGMc (R&D Systems) (human) (UniProt Q6ZVN8). As to the kind of experiment: direct EIA: carrier-free RGMc coated at 0.5 ug/mL; sample at 2 ug/ml; goat anti-mouse IgG-HRPO.
Test [2] addresses carrier free RGMb (R&D Systems) (UniProt Q6NW40). As to the kind of experiment: direct EIA: carrier-free RGMb coated at 0.5 ug/mL; sample at 2 ug/ml; goat anti-mouse IgG-HRPO.
Test [3] concerns the target carrier free RGMa (R&D Systems) (UniProt Q96B86). Description: direct EIA: carrier-free RGMa coated at 0.5 ug/mL; sample at 2 ug/ml; goat anti-mouse IgG-HRPO.

Chain of carrier free RGMa (R&D Systems) (Q96B86 48-422 limits assumed): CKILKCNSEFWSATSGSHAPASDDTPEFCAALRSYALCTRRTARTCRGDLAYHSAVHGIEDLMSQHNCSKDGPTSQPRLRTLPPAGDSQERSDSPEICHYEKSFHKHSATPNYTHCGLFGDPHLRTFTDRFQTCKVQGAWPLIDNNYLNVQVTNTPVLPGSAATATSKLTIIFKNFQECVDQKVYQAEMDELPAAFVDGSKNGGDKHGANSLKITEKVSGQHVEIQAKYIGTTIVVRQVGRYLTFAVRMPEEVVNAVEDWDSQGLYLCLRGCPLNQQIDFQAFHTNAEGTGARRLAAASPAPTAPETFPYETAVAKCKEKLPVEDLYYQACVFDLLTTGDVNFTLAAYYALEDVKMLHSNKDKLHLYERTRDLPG
Chain of carrier free RGMc (R&D Systems) (human) (Q6ZVN8 36-400 limits assumed): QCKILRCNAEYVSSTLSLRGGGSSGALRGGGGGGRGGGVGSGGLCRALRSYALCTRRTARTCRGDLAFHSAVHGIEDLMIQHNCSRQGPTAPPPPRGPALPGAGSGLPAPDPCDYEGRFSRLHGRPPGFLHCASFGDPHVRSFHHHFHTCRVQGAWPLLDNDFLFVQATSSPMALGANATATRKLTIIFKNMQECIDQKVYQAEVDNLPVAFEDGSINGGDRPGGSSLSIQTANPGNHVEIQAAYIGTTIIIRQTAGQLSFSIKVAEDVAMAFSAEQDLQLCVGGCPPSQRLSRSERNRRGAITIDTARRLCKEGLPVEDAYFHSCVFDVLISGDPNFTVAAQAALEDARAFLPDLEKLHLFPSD
Chain of carrier free RGMb (R&D Systems) (Q6NW40 46-413 limits assumed): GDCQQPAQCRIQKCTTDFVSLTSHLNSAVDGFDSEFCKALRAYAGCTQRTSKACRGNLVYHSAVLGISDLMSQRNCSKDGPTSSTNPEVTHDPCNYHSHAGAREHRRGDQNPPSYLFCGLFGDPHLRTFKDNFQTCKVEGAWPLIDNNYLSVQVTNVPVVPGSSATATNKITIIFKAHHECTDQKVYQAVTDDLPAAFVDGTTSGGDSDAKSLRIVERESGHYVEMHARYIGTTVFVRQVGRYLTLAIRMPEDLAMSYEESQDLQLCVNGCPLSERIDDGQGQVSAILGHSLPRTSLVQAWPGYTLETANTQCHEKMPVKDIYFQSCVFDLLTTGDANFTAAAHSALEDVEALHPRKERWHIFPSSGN

Consider “negative control: purified mouse mAb from an irrelevant / different antigen system (antibody)”, for which the absorbance at 492 nm in test [1] turned out to be 0.14; in test [2], 0.09; in test [3], 0.1.
